Holding throughout (assay type): cell-based
The subject of assay [1] is cytosolic Ca2+ in mouse intestinal organoids. The assay can be described thus: live Ca2+ imaging of mouse intestinal organoids (GCaMP6f/tdTomato: baselined area under curve, peak number, height, width). Particulars: live organoids expressing GCaMP6f. As to the method:
Z stacks were acquired every 10 s.
Z-stack images were converted to mean intensity projections and, where required; background was subtracted using a rolling ball algorithm. Segmentation was conducted on a max-projection over-time of the GCaMP6f channel using Cellpose’s pre-trained “Cytoplasm” classifier. Mean intensity traces were measured in each ROI over the time course in both the GCaMP6f and TdTomato channels using scikit-image[138]. Ca^2+ oscillation patterns were calculated in an unsupervised, automated manner using MATLAB. Mean intensity traces were smoothed using a Savitzky-Golay filter and peaks were identified using the “findpeaks” algorithm from the MATLAB Signal Processing Toolbox. Graphs for GCaMP6f/tdTomato fluorescence ratio, peak numbers, peak height, peak width and baselined area under the curve were generated using Python matplotlib and seaborn packages. Statistical analysis was performed using Python SciPy and scikit-post-hoc packages.

In assay [2] the test system is β-Catenin-dependent Wnt signaling (HEK293-TB cells). Kind of assay: TOPbrite dual-luciferase Wnt reporter assay. The conditions noted are these: SF.3e. The protocol:
Generation of HEK293 cells stably expressing a TOPbrite firefly luciferase Wnt reporter and pRL-SV40 Renilla luciferase (HEK293-TB) was previously described. HEK293-TB cells were maintained in DMEM/F12 (50:50), supplemented with 10% FBS, 2 mM Glutamax (Gibco, #35050-061) and 40 μg/ml hygromycin (Cellgro, #30-240-CR). For the luciferase reporter assay, HEK293-TB cells were seeded in 96-well plates (Falcon, #353377). The next day, cells were treated with indicated Wnt ligands (50 ng/ml) or CM diluted in culture media. After 24 h, the firefly and Renilla luciferase activity was measured using Dual-Glo Luciferase Assay system (Promega, #E2940) on a Perkin Elmer EnVision multilabel reader. The ratios of firefly luminescence to Renilla luminescence were calculated and normalized to control samples that were not treated.
A general note: A reporter such as luciferase makes a cellular process visible.

Assay [3] has as its system mouse intestinal organoids. The assay can be described thus: cystic organoid percentage, organoids treated with recombinant Wnt ligands (Wnt3a, Wnt5a, Wnt11). Particulars: for percentage of cystic organoids: Fig. 4e, individual mice, n = 3; for cystic organoids (sheet SF.5b): Wnt5a + DMSO, relative to Untreated = 0. As to the method:
(§1) The jejunum part of the small intestine was removed, flushed with PBS, opened longitudinally, then cut into 0.5 cm pieces. The collected tissues were washed with ice cold PBS multiple times by vortexing and incubated in PBS containing 2.5 mM EDTA for 5 min at 37 °C. After gentle shaking and aspiration, tissues were incubated in PBS containing 5 mM EDTA for 7 min at 37 °C. Tissues were then washed with PBS to remove EDTA and vigorously shaken to release crypts. The released crypts were passed through 70 μm strainers, washed with PBS, and pelleted by centrifugation at 200 × g. Resuspended crypts were mixed with Matrigel (Corning, #356231; Lot#8218007) and pipetted into culture plates. After mixture of crypts and Matrigel solidified, IntestiCult Organoid Growth Medium (Stem Cell Technologies, #06005; Lots #1000021927, #1000034230, #1000037372) was added. Seven days after seeding, organoids were resuspended in dissociation buffer (Gentle Cell Dissociation Reagent; Stem Cell Technologies, #07174), dissociated by pipetting, and seeded for experiments.
(§2) 3-4 biological replicates of organoids from different mice were used per condition. Organoids were cultured in the indicated media, inhibitors, antibodies and/or recombinant proteins for 5 d and fixed in 4% formaldehyde in PBS. Organoids were imaged with a 4× Plan Fluor objective (NA: 0.13, Nikon) on a Nikon Ti-E inverted microscope equipped with a Neo scMOS camera (Andor, Oxford Instruments), a linear encoded automated stage (Applied Scientific Instrumentation), all run by NIS Elements software (Nikon). Organoids were imaged in brightfield and images covering the whole well were stitched and focused into one image projection with an extended depth of focus module (EDF; Nikon). One hundred to 200 organoids per replicate per condition were counted and used for quantification. The number of budding organoids in each condition was normalized by the number of budding organoids in untreated or DMSO treated controls to calculate cystic organoid percentage:1 Cysticorganoidpercentage=100×1−Numberofbuddingorganoidsfromexperiment/Numberofbuddingorganoidsfromcontrol

For assay [4], the system named is mouse intestinal organoids. The assay can be described thus: RNAseq of intestinal organoids. The conditions noted are these: 2 days. The protocol:
Total RNA was isolated using the RNeasy Plus Mini Kit (Qiagen, #74134) per manufacturer’s instructions. Total RNA was quantified with Qubit RNA HS Assay Kit (Thermo Fisher Scientific, #Q32852) and quality was assessed using RNA ScreenTape on 4200 TapeStation (Agilent Technologies, #5067-5576). cDNA library was generated from 2 ng of total RNA using Smart-Seq V4 Ultra Low Input RNA Kit (Takara, #634894). 150 pg of cDNA was used to make sequencing libraries by Nextera XT DNA Sample Preparation Kit (Illumina, #FC-131-1024). Libraries were quantified with Qubit dsDNA HS Assay Kit (Thermo Fisher Scientific, #Q32851) and the average library size was determined using D1000 ScreenTape on 4200 TapeStation (Agilent Technologies, #5067-5582). Libraries were pooled and sequenced on NovaSeq 6000 (Illumina) to generate 30 millions single-end 50-base pair reads for each sample.
Sequencing reads were filtered and aligned using HTSeqGenie v4.2.2. […] Reads within coding sequences were counted to determine an estimate of gene expression. Read counts were scaled by library size, quantile normalized and precision weights were calculated using the voom R package. […] Differential gene expression was calculated using voom+limma with multiple-hypothesis correction of P values performed using the Benjamini-Hochberg method. […]

The test system of assay [5] is YAP in mouse intestinal organoids. The assay can be described thus: whole mount immunostaining for YAP nuclear localization. As to the method:
For whole mount staining, freshly passaged crypts were mixed with Matrigel (Corning, #356231) and mounted to µ-Slide 8 well chamber slides (ibidi, #80826). Media were changed every 2–3 d. 5 days later, organoids in the chamber slides were then fixed in 4% formaldehyde in PBS for 30 min, permeabilized with 0.5% Triton X-100 for 1 h, and incubated in blocking solution (3% normal donkey serum (Sigma-Aldrich, #566460) and 5% BSA (Sigma-Aldrich, #A7979) in 0.1% Triton X-100 + PBS) for 1 h. Primary and secondary antibodies were diluted in blocking solution and added to fixed organoids. Organoids were incubated with primary antibodies overnight at 4 °C and with secondary antibodies for 2 h. ProLong Diamond Antifade Mountant (Invitrogen, # P36970) was added. Images were acquired with a Yokogawa CSU-W1/Zeiss 3i Marianas spinning disk confocal microscopy system. For each organoid, Z-planes up to 100 μm with 1 or 1.5 μm z-steps were acquired to quantify the number of cell types.

For assay [6], the system named is mouse intestinal organoids. Kind of assay: inhibition of Wnt5a-induced cystic organoids. The conditions noted are these: individual mice, n = 3. The protocol: as §1, §2

Here are results for one molecule from PMC9834240, “Senescent cells perturb intestinal stem cell differentiation through Ptk7 induced noncanonical Wnt and YAP signaling” (Nature Communications, 2023).

Values joined by “and” are separate entries in the source; they are usually repeats but may differ in a detail not shown here. Equal values may be shown once. “Also recorded” adds a separate entry of the source.

B1: Wnt5a: recombinant protein, R&D Systems 645-WN-010 (protein)
chain: IIGAQPLCSQLAGLSQGQKKLCHLYQDHMQYIGEGAKTGIKECQYQFRHRRWNCSTVDNTSVFGRVMQIGSRETAFTYAVSAAGVVNAMSRACREGELSTCGCSRAARPKDLPRDWLWGGCGDNIDYGYRFAKEFVDARERERIHAKGSYESARILMNLHNNEAGRRTVYNLADVACKCHGVSGSCSLKTCWLQLADFRKVGDALKEKYDSAAAMRLNSRGKLVQVNSRFNSPTTQDLVYIDPSPDYCVRNESTGSLGTQGRLCNKTSEGMDGCELMCCGRGYDQFKTVQTERCHCKFHWCCYVKCKKCTEIVDQFVCK
modifications: biotin
Consider B1, for which the “effect on cytosolic Ca2+ levels and oscillations” value in assay [1] was “cytosolic Ca^2+ levels and oscillations increased; also recorded: modulate cytosolic Ca^2+ oscillations”. Further, the “TOPbrite dual-luciferase Wnt reporter activity” value worked out at 0.3121 in assay [2] (replicate 1), 0.2591 in assay [2] (replicate 2), 1.226 in assay [2] (replicate 3) and 1.185 in assay [2] (replicate 4). Further, the “percentage of cystic organoids” value in assay [3] (Wnt5a 25 ng/ml) is 14.1026% and 5.06% and 6.32%; in assay [3] (Wnt5a 50 ng/ml), 23.3312% and 3.761% and 10.619%; in assay [3] (Wnt5a 100 ng/ml), 26.0174% and 31.7553% and 21.762%; in assay [3] (Wnt5a 250 ng/ml), 40.092% and 41.2431% and 44.3989%; in assay [3] (Wnt5a 500 ng/ml) it was 62.8247% and 56.8452% and 53.6325%; in assay [6] (Fig. 4g, Wnt5a + DMSO) it was 46.8995% and 39.0061% and 36.0342%. For the same molecule, in assay [6] (Fig. 4i, Wnt5a + IgG), the “percentage of cystic organoids” value was 49.9365% and 63.1809% and 67.3433%. For the same molecule, the “cystic organoids (sheet SF.5b)” value is recorded as 22.713 in assay [3] (replicate 1), 18.3144 in assay [3] (replicate 2), 19.185 in assay [3] (replicate 3) and 14.2949 in assay [3] (replicate 4). In assay [3] (Wnt5a compared to Wnt3a), the “cystic organoid size” value is “larger than those treated with Wnt3a”. Moreover, in assay [3] (recombinant Wnt ligand added to crypt cultures), the “induction of cystic organoids” value is “dose-dependently increased organoids with cystic morphology”. In addition, the “Ptk7-dependent DEGs with TEAD binding motifs” value in assay [4] is “increased expression”. In assay [5], the “effect on nuclear localization of YAP” value is on record as “increased nuclear localization of YAP”.
